# In US8673856B2 (Anygen Co., Ltd., priority 2006, dated 2014):
# No end group written: not given here.
# Tests used:
# [1] = molecular target: T1, human N-type calcium channel (Homo sapiens, UniProt Q00975); format: cell-based
# T1 construct: expressed in transfected cells; host or cells: HEK 293 (human embryonic kidney) cells
# [2] = molecular target: T1, human N-type calcium channel; format: cell-based; remark: listed apart in the source
substance,measurement,setting,value
"CKGTGKSCSRLMYNCCTGSCRSGKC-NH2 (CKGTGKSCSRLMYNCCTGSCRSGKC-NH2; ends and bridges not checked) [FVIA[I11L, A12M], FVIA with Ile11 and Ala12 mutated to Leu and Met]",Calcium channel blocking activity,[1],calcium channel blocking activity similar to FVIA
same,Reversibility,[2],significantly reduced reversibility
